From patent publication US20060142192A1 (ZymoGenetics, published 2006)

Tests used:
Assay in all cases: flow cytometry, biotinylated ligand + streptavidin-PE on stably transfected BHK cells
[1] = biological target: T1, human IL-17B (biotinylated) (human, UniProt Q9UHF5 21-180, biotin label (sites not given))
T1 sequence (looked up): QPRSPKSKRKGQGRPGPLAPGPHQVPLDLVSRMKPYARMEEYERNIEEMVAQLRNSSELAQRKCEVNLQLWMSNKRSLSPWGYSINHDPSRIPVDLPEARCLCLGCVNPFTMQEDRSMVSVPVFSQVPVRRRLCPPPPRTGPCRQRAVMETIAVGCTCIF

[2] = biological target: T2, human IL-17F (biotinylated) (human, UniProt Q96PD4 31-163, biotin label (sites not given))
T2 sequence (looked up): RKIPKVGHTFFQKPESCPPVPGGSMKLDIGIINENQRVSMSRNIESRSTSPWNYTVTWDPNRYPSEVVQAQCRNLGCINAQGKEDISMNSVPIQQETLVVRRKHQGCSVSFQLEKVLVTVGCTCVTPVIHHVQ

[3] = biological target: T3, human IL-17D (biotinylated) (human, UniProt Q8TAD2 18-202, limits assumed, biotin label (sites not given))
T3 sequence (looked up): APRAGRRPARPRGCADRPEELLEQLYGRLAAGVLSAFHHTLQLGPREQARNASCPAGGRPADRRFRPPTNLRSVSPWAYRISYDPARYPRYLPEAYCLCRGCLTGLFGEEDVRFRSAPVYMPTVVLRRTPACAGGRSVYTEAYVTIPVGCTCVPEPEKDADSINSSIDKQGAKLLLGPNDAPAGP

[4] = biological target: T4, human IL-17A (biotinylated) (human, UniProt Q16552 24-155, biotin label (sites not given))
T4 sequence (looked up): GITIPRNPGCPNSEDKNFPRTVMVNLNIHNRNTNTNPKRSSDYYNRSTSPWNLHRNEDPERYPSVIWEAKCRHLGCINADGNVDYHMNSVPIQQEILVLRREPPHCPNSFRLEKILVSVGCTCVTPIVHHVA

Measured: binding result

B1: human ZcytoR21x3 (receptor)
chain: AGIGFRHLPHWNTRCPLASHTVFNGASSTSWCRNPKSLPHSSSIGDTRCQHLLRGSCCLVVTCLRRAITFPSPPQTSPTRDFALKGPNLRIQRHGKVFPDWTHKGPEFSFDLLPEARAIRVTISSGPEVSVRLCHQWALECEELSSPYDVQKIVSGGHTVELPYEFLLPCLCIEASYLQEDTVRRKKCPFQSWPEAYGSDFWKSVHFTDYSQHTQMVMALTLRCPLKLEAALCQRHDWHTLCKDLPNATARESDGWYVLEKVDLHPQLCFKFSFGNSSHVECPHQTGITEARDWPSHIQVSCSPGVPIREPQTSNCLWFVRNEATQQEARGSSPVSLDLIIPFLRPGCCVLVWRSDVQFAWKHLLCPDVSYRHLGLLILALLALLTLLGVVLALTCRRPQSGPGPARPVLLLHAADSEAQRRLVGALAELLRAALGGGRDVIVDLWEGRHVARVGPLPWLWAARTRVAREQGTVLLLWSGADLRPVSGPDPRAAPLLALLHAAPRPLLLLAYFSRLCAKGDIPPPLRALPRYRLLRDLPRLLRALDARPFAEATSWGRLGARQRRQSRLELCSRLEREAARLADLG
notes: also called hcytor21x3
no binding: all assays above
